In US8129592B2, “Plant isoflavonoid hydroxylases and methods of use thereof” (The Samuel Roberts Noble Foundation, Inc., priority 2003, dated 2012):

Columns and labels:
[1] = substrate: COc1ccc(-c2coc3cc(O)cc(O)c3c2=O)cc1; experiment: Hydroxylase assay with yeast microsomes expressing recombinant MtCYP81E9 (I3′H); format: biochemical, Medicago truncatula; conditions: other: 2 mM NADPH and pH 8.0, 25.0 °C
Experimental: (§1) After induction with 20% galactose for ˜18 h, yeast cells was harvested, weighed, and immediately processed for microsomal fractionation.
(§2) After incubation at ˜80 rpm for 30 to 40 min, spheroplasts were centrifuged down for 5 min, washed twice with Zymolyase buffer B, and then twice with phosphate buffer A (0.1 M potassium phosphate pH 8.0, 1 M sorbitol, 14 mM 2-mercaptoethanol). The spheroplasts were re-suspended in a minimum vol of phosphate buffer B (0.1 M potassium phosphate pH 8.0, 0.4 M sucrose, 14 mM β-mercaptoethanol, 1 mM PMSF and 1× protein inhibitor cocktail (Roche Diagnostics GmbH, Mannheim, German), and 1 vol of glass beads (diameter at 0.45/0.50 mm) was added. Samples were vigorously vortexed at 4° C., with the quality of cell disruption checked under the microscope. The supernatant was then removed and the beads washed four times with phosphate buffer B. Supernatants were pooled and centrifuged at 12,000 g for 10 min; the resulting supernatant was then ultracentrifuged at 140,000 g for 90 min. The supernatant was discarded and the pellet washed briefly with phosphate buffer C (0.1 M potassium phosphate, pH 8.0, 0.4 M sucrose, 0.5 mM glutathione), and re-suspended in the same buffer plus 5% glycerol at about 12 mg total protein/ml. Protein was quantified using a Bio-Rad protein assay kit (Bio-Rad, Hercules, Calif.).
(§3) Hydroxylase assays were performed in phosphate buffer C in a total volume of 150 μl containing 2 mM NADPH, 40 μM isoflavone substrate and 40˜70 pmol P450 protein. Reactions were incubated at 25° C. for 1.5 h (over which period the reactions were linear) with gentle shaking and stopped by extracting twice with 500 μl of ethyl acetate. The extracts were combined, evaporated under N2, re-suspended in 60 μl of methanol, and analyzed by HPLC or LC-MS. All assays to determine enzyme specificity were carried out in duplicate. For kinetic studies, the isoflavone concentration was varied at a fixed concentration of NADPH (2 mM), and kinetic constants calculated from initial rate data using Lineweaver-Burke double reciprocal plots. All kinetic analyses were carried out in triplicate.
(§4) Reaction products from enzyme assays (30 μl) were analyzed by HPLC.
(§5) Product identification was firstly based on comparisons of chromatographic behavior and UV spectra with authentic standards. Identifications were then confirmed by HPLC-MS, using a HP 1100 liquid chromatograph coupled to a Bruker Esquire Ion-Trap mass spectrometer equipped with an electrospray source. HPLC separation was achieved using a J. T. Baker Bakerbond reverse-phase column (C18, 5 μm, 4.6 mm×250 mm, J. T. Baker, Philipsberg, N.J.). […] Mass spectra were recorded over a range of 50-2200 m/z.

[2] = substrate: COc1ccc(-c2coc3cc(O)ccc3c2=O)cc1; experiment: as above; format: biochemical, Medicago truncatula; conditions: other: 2 mM NADPH and pH 8.0, 25.0 °C
Experimental: as §1, §2, §3, §4, §5

B1: I3′H (MtCYP81E9) (Medicago truncatula) (protein)
chain: MTLFYYSLLSLSFIITIKILLKITSRRLKNLPPGPPTIPIIGNLHHLKHPLHRTFTTLSQTYGDIFSLWFGSRLVVVVSSPSLAHECFTKNDIILANRPRFLTGKYIFYNYTTLGSASYGDHWRNLRRITTIDVLSNNRLNSFLGVRRDETNRLIQKLLKDVVSEGFGFTKVELRPRLTEMTFNAMMRMISGKRYYGDDGDVSDVEEAKQFREIISEMMSLLGANNKGDFLPLLRVVDLDNLEKRCKRIAKRSNAFLEGLIEEHRRGNIHSDGGTMIDHLLKLSESQPEYYSDHLIKGLIQGMLLAGTDTSAVTIEWVMSELLNHPEVLKKAKEELDTQIGKNKLVDEQDLSKLPYLQNIISETLRLHPPAPLLLPHYSSEDCTIGEFNVPKDTIILTNVWGIHRDPKHWNDALSFKPERFEKEEEVNKVMAFGLGRRACPGLSLAQRTVGFTVGLLIQCFEWERESEEKLDMMEGKGITMPMKIPLRAMCKALPIANDVTK
notes: made in house; host or cells: Saccharomyces cerevisiae WAT11, vector YeDP60; microsomal fraction
[1]
  Km: 112.6 µM
  kcat: 0.1 s⁻¹
[2]
  Km: 49.7 µM
  kcat: 0.028 s⁻¹
